In patent publication US20240115693A1 (CHILDREN S MEDICAL CENTER, published 2024):

Target: T1, recombinant human ACE2 (hACE2-Fc, InvivoGen) (human, UniProt Q9BYF1 18-740)
T1 construct: not shown: Fc part of a bought reagent
Test: ELISA, LuS-Tag coated, hACE2-Fc titrated

T1 sequence (Q9BYF1 18-740): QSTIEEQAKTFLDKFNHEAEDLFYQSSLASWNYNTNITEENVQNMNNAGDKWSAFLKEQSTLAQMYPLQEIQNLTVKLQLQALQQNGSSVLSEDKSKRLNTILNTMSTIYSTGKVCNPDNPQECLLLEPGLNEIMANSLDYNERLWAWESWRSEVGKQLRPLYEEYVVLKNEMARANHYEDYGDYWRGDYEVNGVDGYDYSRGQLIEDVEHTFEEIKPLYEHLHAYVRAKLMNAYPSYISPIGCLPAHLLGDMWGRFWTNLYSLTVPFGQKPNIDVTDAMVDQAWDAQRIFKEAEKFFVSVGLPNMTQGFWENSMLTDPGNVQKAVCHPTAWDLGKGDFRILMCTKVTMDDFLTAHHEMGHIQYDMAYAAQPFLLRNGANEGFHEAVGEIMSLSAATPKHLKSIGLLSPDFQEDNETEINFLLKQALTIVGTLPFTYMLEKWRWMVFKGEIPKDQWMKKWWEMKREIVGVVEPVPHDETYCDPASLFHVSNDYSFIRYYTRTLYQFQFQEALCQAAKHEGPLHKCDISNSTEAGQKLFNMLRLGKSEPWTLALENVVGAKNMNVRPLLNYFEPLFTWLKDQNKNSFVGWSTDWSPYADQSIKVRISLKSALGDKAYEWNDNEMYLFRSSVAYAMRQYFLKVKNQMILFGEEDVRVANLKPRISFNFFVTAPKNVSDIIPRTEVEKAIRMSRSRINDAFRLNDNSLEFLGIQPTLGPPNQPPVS

B1: Lumazine synthase expressing SpyTag (LuS-Tag) (other)
chain: AHIVMVDAYKPTKMQIYEGKLTAEGLRFGIVASRFNHALVDRLVEGAIDCIVRHGGREEDITLVRVPGSWEIPVAAGELARKENIDAVIAIGVLIRGATPHFDYIASEVSKGLANLSLELRKPITFGVITADTLEQAIERAGTKHGNKGWEAALSAIEMANLFKSLR
  binding result: no binding (tested: starting at 10 µg/ml)
